Experimental data published in patent publication US20130115676.
Numbering of substitutions follows the chain as printed.

Columns and labels:
Assay in all cases: cleavage_in_vitro
[1] = tested on: T1, AvrII-HF Y104F (Anabaena variabilis); conditions: NEB4, 10 mM Mg acetate, 37 C
T1 sequence: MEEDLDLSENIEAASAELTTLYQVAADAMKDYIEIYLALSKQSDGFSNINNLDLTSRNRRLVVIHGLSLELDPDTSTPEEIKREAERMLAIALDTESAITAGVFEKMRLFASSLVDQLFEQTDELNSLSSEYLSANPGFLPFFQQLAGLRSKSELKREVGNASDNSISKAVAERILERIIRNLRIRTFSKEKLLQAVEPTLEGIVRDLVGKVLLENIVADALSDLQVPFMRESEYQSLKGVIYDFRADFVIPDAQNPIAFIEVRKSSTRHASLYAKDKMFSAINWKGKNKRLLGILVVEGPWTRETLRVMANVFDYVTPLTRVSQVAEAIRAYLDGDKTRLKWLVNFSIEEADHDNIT

[2] = tested on: T2, AvrII (Anabaena variabilis); conditions: NEB1, 10 mM MgCl2, 37 C
T2 sequence: T1 sequence with F104Y

[3] = target: T3, SalI-HF R107A (Streptomyces albus G) (UniProt Q53608); conditions: NEB2, 10 mM MgCl2, 37 C; Table 10 gives FI >=2000
T3 sequence: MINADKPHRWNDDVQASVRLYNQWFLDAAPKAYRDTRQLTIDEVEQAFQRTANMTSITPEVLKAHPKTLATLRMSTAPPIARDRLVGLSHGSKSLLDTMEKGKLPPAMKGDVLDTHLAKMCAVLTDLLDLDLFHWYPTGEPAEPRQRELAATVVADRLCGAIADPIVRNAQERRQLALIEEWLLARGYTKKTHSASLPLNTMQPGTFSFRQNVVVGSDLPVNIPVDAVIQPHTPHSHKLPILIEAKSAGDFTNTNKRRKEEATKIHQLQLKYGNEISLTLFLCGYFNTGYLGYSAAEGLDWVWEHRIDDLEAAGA

[4] = target: T4, SalI (Streptomyces albus G) (UniProt Q53608); conditions: NEB3, 10 mM MgCl2, 37 C; Table 10 gives FI 4
T4 sequence: T3 sequence with A107R

[5] = target: T5, PvuII-HF T46G (Proteus vulgaris) (UniProt P23657); conditions: NEB4, 10 mM Mg acetate, 37 C
T5 sequence: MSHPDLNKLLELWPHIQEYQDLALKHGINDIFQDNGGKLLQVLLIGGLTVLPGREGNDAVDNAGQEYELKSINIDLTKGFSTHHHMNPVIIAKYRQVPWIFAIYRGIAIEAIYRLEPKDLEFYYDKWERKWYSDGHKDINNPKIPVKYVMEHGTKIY

PvuII (Proteus vulgaris) = target: T6, PvuII (Proteus vulgaris) (UniProt P23657); conditions: NEB1, 10 mM MgCl2, 37 C
T6 sequence: T5 sequence with G46T

[6] = tested on: T7, BspQI-HF K279P/R388F (Bacillus sphaericus); conditions: NEB4, 10 mM Mg acetate, 50 C
T7 sequence: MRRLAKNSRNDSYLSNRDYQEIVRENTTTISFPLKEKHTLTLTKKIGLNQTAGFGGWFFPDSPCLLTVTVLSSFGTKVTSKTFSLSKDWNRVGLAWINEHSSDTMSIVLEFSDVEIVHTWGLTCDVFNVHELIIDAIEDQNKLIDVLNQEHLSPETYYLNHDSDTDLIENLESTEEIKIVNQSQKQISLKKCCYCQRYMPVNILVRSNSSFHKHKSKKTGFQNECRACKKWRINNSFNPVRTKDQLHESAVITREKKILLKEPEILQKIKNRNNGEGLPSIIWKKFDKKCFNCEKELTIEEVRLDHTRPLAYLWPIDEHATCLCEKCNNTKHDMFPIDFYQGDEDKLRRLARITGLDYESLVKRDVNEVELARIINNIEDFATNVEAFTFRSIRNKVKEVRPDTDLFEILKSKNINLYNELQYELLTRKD

In the case of T7 DNA, the activity (fidelity index) [1] is reported as over 1000 and the activity (fidelity index) [2] is reported as 64.

Work on lambda DNA HindIII-digested yielded an activity (fidelity index) [3] of over 64000 and an activity (fidelity index) [4] of 32.

Work on pBR322 yielded an activity (fidelity index) [5] of 500 and an activity (fidelity index) (PvuII (Proteus vulgaris)) of 250.

With pUC19 the activity (fidelity index) [6] was over 4000.
